From patent CN108314731A (ZHUHAI TAINUO MAIBO BIOTECHNOLOGY CO LTD; GUANGZHOU …, dated 2018) come the findings set out here.

In the test the target is 破伤风类毒素 (tetanus toxoid) (破伤风杆菌 (Clostridium tetani), UniProt P04958 2-1315).
破伤风类毒素 (tetanus toxoid), sequence (P04958 2-457 limits assumed, chain 1 of 2): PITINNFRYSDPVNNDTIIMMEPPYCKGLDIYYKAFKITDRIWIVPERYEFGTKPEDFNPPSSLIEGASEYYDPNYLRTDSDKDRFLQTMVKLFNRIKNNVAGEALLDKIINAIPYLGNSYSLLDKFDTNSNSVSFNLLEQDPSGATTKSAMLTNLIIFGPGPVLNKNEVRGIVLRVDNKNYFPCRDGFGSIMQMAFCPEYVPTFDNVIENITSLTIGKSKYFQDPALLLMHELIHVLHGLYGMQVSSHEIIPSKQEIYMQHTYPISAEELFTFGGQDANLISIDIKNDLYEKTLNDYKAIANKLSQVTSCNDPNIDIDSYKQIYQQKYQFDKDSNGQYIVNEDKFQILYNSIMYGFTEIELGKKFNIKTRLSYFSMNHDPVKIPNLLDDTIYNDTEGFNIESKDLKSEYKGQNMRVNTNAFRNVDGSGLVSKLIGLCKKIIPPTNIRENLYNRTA
破伤风类毒素 (tetanus toxoid), sequence (P04958 458-1315 limits assumed, chain 2 of 2): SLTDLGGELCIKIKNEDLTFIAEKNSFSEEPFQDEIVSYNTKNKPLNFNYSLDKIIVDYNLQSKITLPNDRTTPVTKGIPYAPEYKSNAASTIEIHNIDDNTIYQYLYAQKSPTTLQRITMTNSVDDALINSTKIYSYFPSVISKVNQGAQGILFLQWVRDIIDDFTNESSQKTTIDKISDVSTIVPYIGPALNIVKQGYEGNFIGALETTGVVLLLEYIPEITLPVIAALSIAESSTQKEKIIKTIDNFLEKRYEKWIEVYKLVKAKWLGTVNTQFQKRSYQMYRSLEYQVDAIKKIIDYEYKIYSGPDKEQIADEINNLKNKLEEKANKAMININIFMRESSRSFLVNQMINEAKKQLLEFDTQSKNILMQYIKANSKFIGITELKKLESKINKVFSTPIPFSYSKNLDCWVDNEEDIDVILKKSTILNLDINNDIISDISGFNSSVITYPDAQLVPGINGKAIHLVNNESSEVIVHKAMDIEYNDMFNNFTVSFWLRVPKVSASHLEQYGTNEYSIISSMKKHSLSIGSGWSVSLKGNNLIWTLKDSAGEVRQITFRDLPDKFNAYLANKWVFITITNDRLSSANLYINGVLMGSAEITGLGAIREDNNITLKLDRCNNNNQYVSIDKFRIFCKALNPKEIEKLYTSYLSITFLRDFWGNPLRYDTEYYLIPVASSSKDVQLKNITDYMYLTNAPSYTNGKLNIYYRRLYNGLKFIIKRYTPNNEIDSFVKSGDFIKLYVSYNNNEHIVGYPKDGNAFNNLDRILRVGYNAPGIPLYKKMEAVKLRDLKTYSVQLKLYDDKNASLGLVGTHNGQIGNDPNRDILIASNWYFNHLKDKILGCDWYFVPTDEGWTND

B1: TRN0010抗体 (全人源抗破伤风毒素中和抗体) (antibody, V domains shown)
VH: QVQLQESGPGLVKPSETLSLRCTVSGGSISSYYWSWFRQPPGKGLEWIGYVHYSGSTNYNPSLKSRFTLSVDTSKSQFSLRLRSVTAADTAIYYCARDKYQTDVSDIWGQGTVVTVSS
VL: DIQMTQSPGTLSLSPGERATLSCRASQSITSSFLAWYQQKPGQAPRLLIYGASSRATGIPDRFSGSGSGTDFILTISRLEPEDFAVYYCQQYDTSRTFGQGTTVEIK
Regarding B1, the Kd (in general, the concentration at which binding is half-saturated) turned out to be 3.68 nM; the koff (commonly the first-order rate constant of dissociation) was 0.000153 s⁻¹; the association rate constant (kon) (usually the rate constant with which the complex forms) came to 41500 M⁻¹ s⁻¹.
